The values that follow come from PMC7356358 (Biomolecules, 2020).

Where two headings read alike, the source gives them in different places.

In series [1] the test system is KPf. The following applies: MP-SPR, PfHsp40 over immobilized KPf, three runs. On the procedure:
The analysis was conducted both in the absence and presence of 5 mM of ATP/ADP. The ligand and analyte pairs were swapped, and the data generated were analyzed after global fitting. Association was allowed for 2 min, and dissociation was monitored for 8 min. Data analysis was conducted using TraceDrawer software version 1.8 (Ridgeview Instruments).

Series [2] has as its system PfHsp70-1. The series is described as follows: Interaction of PfHsp40 with PfHsp70-1 by MP-SPR. The format is binding, Plasmodium falciparum.
Sequence of PfHsp70-1 (P11144 1-630 limits assumed): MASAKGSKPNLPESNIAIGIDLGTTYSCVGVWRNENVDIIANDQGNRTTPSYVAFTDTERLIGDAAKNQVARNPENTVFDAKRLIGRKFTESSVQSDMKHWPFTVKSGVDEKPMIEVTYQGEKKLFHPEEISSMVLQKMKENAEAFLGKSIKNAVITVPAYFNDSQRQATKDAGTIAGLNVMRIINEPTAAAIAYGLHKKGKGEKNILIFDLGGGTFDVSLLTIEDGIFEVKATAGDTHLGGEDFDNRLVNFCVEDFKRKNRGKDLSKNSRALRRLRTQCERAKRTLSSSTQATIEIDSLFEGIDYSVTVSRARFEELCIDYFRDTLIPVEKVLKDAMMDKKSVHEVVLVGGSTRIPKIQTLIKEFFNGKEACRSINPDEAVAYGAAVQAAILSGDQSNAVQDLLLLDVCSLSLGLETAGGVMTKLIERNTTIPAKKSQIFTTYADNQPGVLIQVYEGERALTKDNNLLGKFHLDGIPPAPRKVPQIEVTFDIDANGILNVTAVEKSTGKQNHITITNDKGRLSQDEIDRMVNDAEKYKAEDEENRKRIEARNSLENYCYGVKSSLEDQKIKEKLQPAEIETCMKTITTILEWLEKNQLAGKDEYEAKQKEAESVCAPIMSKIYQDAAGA
Series [3] is described as follows: ATPase activity (released inorganic phosphate). It counts as biochemical. The following applies: PfHsp40 preparation alone, non-ATPase control.
Experimental: Hsp70 proteins at final concentration of 0.4 μM were each incubated for 5 min in buffer HKMD (10 mM HEPES-KOH pH 7.5, 100 mM KCl, 2 mM MgCl2 and 0.5 mM DTT). The reaction was initiated by the addition of ATP at various concentrations (0–5 mM) and samples were analyzed every 30 min for 4 h.
Series [4] has as its target DnaK (Escherichia coli, UniProt P0A6Y8). The following applies: MP-SPR, PfHsp40 over immobilized DnaK, three runs.

Sequence of DnaK (P0A6Y8 whole entry): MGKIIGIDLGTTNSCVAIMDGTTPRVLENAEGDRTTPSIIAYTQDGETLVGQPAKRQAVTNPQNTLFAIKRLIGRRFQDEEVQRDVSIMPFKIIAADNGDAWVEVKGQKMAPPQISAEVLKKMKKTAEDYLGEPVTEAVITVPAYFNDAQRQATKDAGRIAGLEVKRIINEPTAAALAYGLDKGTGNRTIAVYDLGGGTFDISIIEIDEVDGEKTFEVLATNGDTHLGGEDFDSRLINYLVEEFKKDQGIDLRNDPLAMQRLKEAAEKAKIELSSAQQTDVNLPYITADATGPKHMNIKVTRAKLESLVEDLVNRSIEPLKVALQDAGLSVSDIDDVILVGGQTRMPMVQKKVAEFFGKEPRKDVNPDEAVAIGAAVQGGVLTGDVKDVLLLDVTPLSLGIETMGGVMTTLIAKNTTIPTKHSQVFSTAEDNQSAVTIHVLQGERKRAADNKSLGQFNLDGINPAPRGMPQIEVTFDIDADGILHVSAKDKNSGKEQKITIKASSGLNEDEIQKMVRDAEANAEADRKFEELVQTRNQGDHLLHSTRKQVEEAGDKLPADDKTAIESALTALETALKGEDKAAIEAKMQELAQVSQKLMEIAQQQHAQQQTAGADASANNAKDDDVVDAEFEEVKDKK
Sequence of KPf (P11144 405-631 limits assumed): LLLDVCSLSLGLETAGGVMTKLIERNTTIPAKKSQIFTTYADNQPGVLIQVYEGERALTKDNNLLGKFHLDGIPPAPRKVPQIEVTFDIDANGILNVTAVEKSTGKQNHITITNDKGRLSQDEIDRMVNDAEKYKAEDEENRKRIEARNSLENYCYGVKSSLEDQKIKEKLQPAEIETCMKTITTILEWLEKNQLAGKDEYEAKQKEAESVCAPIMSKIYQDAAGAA

B1: PfHsp40: P. falciparum type I Hsp40 (PF3D7_1437900), co-chaperone of PfHsp70-1 (protein)
chain: MFFSSGFPFDSMGGQQARRKREVNNNKFYEVLNLKKNCTTDEVKKAYRKLAIIHHPDKGGDPEKFKEISRAYEVLSDEEKRKLYDEYGEEGLENGEQPADATDLFDFILNAGKGKKKRGEDIVSEVKVTLEQLYNGATKKLAISKDIICTNCEGHGGPKDAKVDCKQCNGRGTKTYMRYHSSVLHQTEVTCNTCRGKGKIFNEKDKCANCKGMCVLKTRKIIEVYIPKGAPNKHKIVFNGEADEKPNVITGNLVVILNEKQHPVFRREGIDLFMNYKISLYESLTGFVAEVTHLDERKILVNCTNSGFIRHGDIREVLDEGMPTYKDPFKKGNLYITFEVEYPMDLIITNENKEVLKILKKQNEVEKKYDLENSELEVVSCSPVDKEYIKVRVTKQQQQQQQEAYDDEDHQPEMEGGRVACAQQ
modifications: left off: His6, N-terminal, state not stated
For B1, the Ka in series [1] (+ 5 mM ADP) was 1.36 (±0.26) × 10^2 Ms^−1; in series [1] (+ 5 mM ATP), 1.72 (±0.02) × 10^2 Ms^−1; in series [1] (no nucleotide), 1.24 (±0.04) × 10^4 Ms^−1; in series [2] (PfHsp40 over immobilized PfHsp70-1, + 5 mM ADP, three runs), 1.53 (±0.03) × 10^3 Ms^−1; in series [2] (PfHsp40 over immobilized PfHsp70-1, no nucleotide, three runs), 1.33 (±0.03) × 10^3 Ms^−1; in series [2] (analyte PfHsp40 0-2000 nM over immobilized PfHsp70-1, + 5 mM ATP, global fit, mean (SD) of three runs) it was 1.81 (±0.01) × 10^2 Ms^−1. Besides, the Ka is 1.16 (±0.06) × 10^2 Ms^−1 in series [4] (+ 5 mM ADP), 1.22 (±0.02) × 10^2 Ms^−1 in series [4] (+ 5 mM ATP) and 1.12 (±0.02) × 10^2 Ms^−1 in series [4] (no nucleotide). Moreover, the “independent basal ATPase activity” value in series [3] was “no detectable”.
